Target: T1, IFITM3-C-LgBiT (human, UniProt Q01628 1-133)
T1 construct: also called C-terminal tagged IFITM3; not shown: LgBiT, C-terminal, kept
Assay: split reporter (BiFC, NanoBiT)
Conditions: partners not purified

T1 sequence (Q01628 whole entry): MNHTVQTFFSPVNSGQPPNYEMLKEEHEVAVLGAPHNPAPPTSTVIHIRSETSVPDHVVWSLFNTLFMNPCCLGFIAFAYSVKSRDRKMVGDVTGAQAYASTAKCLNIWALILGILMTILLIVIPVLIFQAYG

B1: ZMPSTE24-C-SmBiT (natural protein, human, UniProt O75844 1-475, looked up)
chain: MGMWASLDALWEMPAEKRIFGAVLLFSWTVYLWETFLAQRQRRIYKTTTHVPPELGQIMDSETFEKSRLYQLDKSTFSFWSGLYSETEGTLILLFGGIPYLWRLSGRFCGYAGFGPEYEITQSLVFLLLATLFSALTGLPWSLYNTFVIEEKHGFNQQTLGFFMKDAIKKFVVTQCILLPVSSLLLYIIKIGGDYFFIYAWLFTLVVSLVLVTIYADYIAPLFDKFTPLPEGKLKEEIEVMAKSIDFPLTKVYVVEGSKRSSHSNAYFYGFFKNKRIVLFDTLLEEYSVLNKDIQEDSGMEPRNEEEGNSEEIKAKVKNKKQGCKNEEVLAVLGHELGHWKLGHTVKNIIISQMNSFLCFFLFAVLIGRKELFAAFGFYDSQPTLIGLLIIFQFIFSPYNEVLSFCLTVLSRRFEFQADAFAKKLGKAKDLYSALIKLNKDNLGFPVSDWLFSMWHYSHPPLLERLQALKTMKQH
notes: also called C-terminal tagged ZMPSTE24; not shown: SmBiT, C-terminal, kept
- luminescence relative to the negative control pairs: ~12 fold

From paper PMC8915953 (Frontiers in Microbiology, 2022)
